Results as given in the supplement of paper PMC12042874.
± gives the uncertainty stated by the source.

Assay: amyloid nucleation score (Sup35N fusion, yeast selection) (log enrichment); library NNK3; higher = more nucleation; inactive = no reads after selection
How it was run: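 Nucleation score: DiMSum log enrichment of output over input reads, centred on the mode score of non-aggregating sequences. Only sequences with at least 100 input reads were kept. Reads came from Illumina sequencing of plasmid inserts before and after 7 days of growth at 30°C without adenine and uracil, in psi-negative yeast expressing Sup35N fused to peptides of 20 random codons after 24 hours of induction with 100 μM copper sulfate.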

Substance: GLRNHCPSFLLWASTARGTL
- amyloid nucleation score: -0.976 ± 2.5

Substance: GLSRCSPWKASSDDRRRLSD
- amyloid nucleation score: inactive

Substance: GLTTLCSVPKQYVKYFVVTH
- amyloid nucleation score: inactive

Substance: GLVVKSKYMRRFPGTR
- amyloid nucleation score: inactive

Substance: GMCVGDLEAQTSEGTSNESW
- amyloid nucleation score: inactive

Substance: GMFCNGINTNYVPVYYYRSV
- amyloid nucleation score: 1.27 ± 0.17

Substance: GMMICMISWWVWNFACVDIR
- amyloid nucleation score: inactive

Substance: GMNKLL
- amyloid nucleation score: inactive

Substance: GMRFRLMEKFHRLFYYSNMT
- amyloid nucleation score: inactive

Substance: GMVNDYVVTVNFPCFWLG
- amyloid nucleation score: 2.19 ± 0.079

Substance: GNNPLVVKNLNRKCL
- amyloid nucleation score: -0.357 ± 0.51

Substance: GNQAYTVTGGSETVCSDNGC
- amyloid nucleation score: inactive

Substance: GNRLALVYLGRILPL
- amyloid nucleation score: inactive

Substance: GNTVEGKLE
- amyloid nucleation score: inactive

Substance: GNVDVAHCDWCKGSTCMLN
- amyloid nucleation score: 2.64 ± 0.084

Substance: GPHNFGEMSGFVDGTRRSGV
- amyloid nucleation score: inactive

Substance: GPNLLWDRGGPVNSCASKEA
- amyloid nucleation score: inactive

Substance: GQDWIAV
- amyloid nucleation score: inactive

Substance: GQKCHLGCAFGCDEYTWAKG
- amyloid nucleation score: inactive

Substance: GQSVMQSAMGSISKFE
- amyloid nucleation score: inactive

Substance: GQYPEYYWYLGTEFFTVVLF
- amyloid nucleation score: inactive

Substance: GRIGTVGWGISLHYVYTDRA
- amyloid nucleation score: 0.547 ± 0.2

Substance: GRIVMHVICNIFNCNYFGNS
- amyloid nucleation score: 2.94 ± 0.072

Substance: GRKKVVTWQLLARQP
- amyloid nucleation score: inactive

Substance: GRLALSTRQHLV
- amyloid nucleation score: inactive

Substance: GRLLMFASDLLNSPRMCWTE
- amyloid nucleation score: -0.687 ± 1.8

Substance: GRLNVLRRRPVGRTKRCSKV
- amyloid nucleation score: inactive

Substance: GRWLV
- amyloid nucleation score: inactive

Substance: GRYFSRNYAMCLLLFTTGEV
- amyloid nucleation score: inactive

Substance: GRYLSANLVVKSGCR
- amyloid nucleation score: inactive

Substance: GSALVLCELGSVAKSLSGNL
- amyloid nucleation score: inactive

Substance: GSATSFAFFIVFLSD
- amyloid nucleation score: 1.51 ± 0.096

Substance: GSCKVADAPCSHARR
- amyloid nucleation score: -0.331 ± 1.3

Substance: GSDVFTFRWGNMLRTCTTGR
- amyloid nucleation score: inactive

Substance: GSFTASFDGFQGSIMVERGG
- amyloid nucleation score: inactive

Substance: GSGLPLTALRSTYVAAPHSE
- amyloid nucleation score: inactive

Substance: GSGTGNALLQLGLTSIFTFS
- amyloid nucleation score: inactive

Substance: GSICLRQGPSVMVLRMWLCD
- amyloid nucleation score: inactive

Substance: GSISLASWVVYSIAIR
- amyloid nucleation score: inactive

Substance: GSKDYQPSYIPWYNFACFKG
- amyloid nucleation score: -0.594 ± 0.96

Substance: GSMMLWCFIDSSWDLSLRK
- amyloid nucleation score: 0.884 ± 0.19

Substance: GSRCCNSAFNKECLSITEHS
- amyloid nucleation score: -0.485 ± 0.8

Substance: GSRIGGVL
- amyloid nucleation score: inactive

Substance: GSRVN
- amyloid nucleation score: -0.352 ± 0.36

Substance: GSSAPKWVWNWFVPYGKRQG
- amyloid nucleation score: 1.3 ± 0.089

Substance: GSSRCNGRLWSAG
- amyloid nucleation score: inactive

Substance: GSSSSVYWFLDGCDTLKRHM
- amyloid nucleation score: inactive

Substance: GSSWCLTLWLKNSLATVQTQ
- amyloid nucleation score: inactive

Substance: GSVGTNCSGFVAPELRSPRC
- amyloid nucleation score: inactive

Substance: GSYRWAVGGKDWGHWDRCLA
- amyloid nucleation score: inactive

Substance: GSYSRTLTYPHGENHENRKV
- amyloid nucleation score: inactive

Substance: GTCKS
- amyloid nucleation score: inactive

Substance: GTFVFTYMWFNIYRQNDFRN
- amyloid nucleation score: inactive

Substance: GTIRDSGSHYKVISF
- amyloid nucleation score: inactive

Substance: GTITPRYRYVIEVSSMKRYW
- amyloid nucleation score: inactive

Substance: GTIYMFENGSSVS
- amyloid nucleation score: inactive

Substance: GTLCTETHGT
- amyloid nucleation score: inactive

Substance: GTMYVGSGGYEKL
- amyloid nucleation score: inactive

Substance: GTQVYTGGRVYERLRVMSCV
- amyloid nucleation score: inactive

Substance: GVFWLLNICQYGPRLRHMWS
- amyloid nucleation score: inactive

Substance: GVGTYI
- amyloid nucleation score: inactive

Substance: GVLREEL
- amyloid nucleation score: inactive

Substance: GVLVTANLYFWMEPSALPAM
- amyloid nucleation score: inactive

Substance: GVNVWRYLCH
- amyloid nucleation score: inactive

Substance: GVRVS
- amyloid nucleation score: inactive

Substance: GVSYMNCTHWTL
- amyloid nucleation score: inactive

Substance: GVTLFSVVQTFLVSTLCKIE
- amyloid nucleation score: inactive

Substance: GVTQVIWVAYNILFLNNCWM
- amyloid nucleation score: inactive

Substance: GVVANFSLPLSAVFAWRSFR
- amyloid nucleation score: 2.78 ± 0.055

Substance: GVVYWVIRKTIEGSLQFASI
- amyloid nucleation score: inactive

Substance: GWGIICFAKY
- amyloid nucleation score: inactive

Substance: GWKANWELCRVYVQWSGLNV
- amyloid nucleation score: 0.422 ± 0.38

Substance: GWKFMREYSKRIGSSSPVVY
- amyloid nucleation score: inactive

Substance: GWSFAWCTRVRVMGKVAVWW
- amyloid nucleation score: inactive

Substance: GYAADMIFYQGHHMKISMFR
- amyloid nucleation score: 1.08 ± 0.15

Substance: GYGVCNNDKCVQDAPGQPVS
- amyloid nucleation score: -0.357 ± 1.1

Substance: GYISMSNKHMGVYIHLA
- amyloid nucleation score: inactive

Substance: GYLLVVW
- amyloid nucleation score: inactive

Substance: GYLSFIVFMGGRPSLSGNSI
- amyloid nucleation score: 1.42 ± 0.14

Substance: GYQDSIGFSSR
- amyloid nucleation score: inactive

Substance: GYRSCCCEKLRSRSCGSSWA
- amyloid nucleation score: inactive

Substance: GYSNFDCLSSLNISEYGPAA
- amyloid nucleation score: inactive

Substance: GYTDRLVLNRKGGQYGGFEN
- amyloid nucleation score: inactive

Substance: GYTMRG
- amyloid nucleation score: inactive

Substance: GYVVQIMFYILVVHTTWSSA
- amyloid nucleation score: -0.451 ± 0.98

Substance: GYYANGISRPVILLMFWRVR
- amyloid nucleation score: inactive

Substance: HAKADL
- amyloid nucleation score: inactive

Substance: HCDCTFYSSLGFIGGTWDSC
- amyloid nucleation score: inactive

Substance: HDAVLI
- amyloid nucleation score: inactive

Substance: HDCSYLGILKDMDS
- amyloid nucleation score: inactive

Substance: HDESQVVLCRYCCSDVRLTH
- amyloid nucleation score: inactive

Substance: HDKAVQEVGQGCGE
- amyloid nucleation score: 1.34 ± 0.11

Substance: HFCKRLENIVYLRIFIFYLN
- amyloid nucleation score: inactive

Substance: HFCSGSINMMNFLSKDYKMQ
- amyloid nucleation score: 2.39 ± 0.063

Substance: HFEIVSVANKITYCLCQQML
- amyloid nucleation score: 2.28 ± 0.075

Substance: HFFNPCQGHRNKVPRRAS
- amyloid nucleation score: inactive

Substance: HFGQCSVMMCDAWGMSDQGP
- amyloid nucleation score: inactive

Substance: HFLLNWSRQI
- amyloid nucleation score: inactive

Substance: HFMLNIWKVDNNMLWVLICP
- amyloid nucleation score: inactive

Substance: HFNPPYRMFPHYVLLMNMYL
- amyloid nucleation score: inactive

Substance: HFVLWHLKGSQFGGSVAVIQ
- amyloid nucleation score: inactive

Substance: HGQFMWLMYYMNILSFLLGF
- amyloid nucleation score: inactive

Substance: HGSYSDGVEVNEFRLGTRVG
- amyloid nucleation score: inactive

Substance: HGVWSCRWWLNNRMF
- amyloid nucleation score: inactive

Substance: HHLSTRINCIDRVRSPNLRL
- amyloid nucleation score: -0.708 ± 1.4

Substance: HHLTFTGGWYPDWHSLFMGG
- amyloid nucleation score: inactive

Substance: HHRLSGEMSSWVATATCWVG
- amyloid nucleation score: inactive

Substance: HIFDNSYIFLDLLLARKY
- amyloid nucleation score: 1.87 ± 0.061

Substance: HIINCFIFLNVTDYTIVFLL
- amyloid nucleation score: 2.21 ± 0.074

Substance: HILHLRLDYFLGA
- amyloid nucleation score: 0.401 ± 0.3

Substance: HINARRLYFTYV
- amyloid nucleation score: inactive

Substance: HIVKKFPSPMRITWCGSPFQ
- amyloid nucleation score: inactive

Substance: HIVMVLRSLAYVSSSTHGRR
- amyloid nucleation score: inactive

Substance: HIWVCLEVGVGKSILVLLLF
- amyloid nucleation score: inactive

Substance: HIYRYLMS
- amyloid nucleation score: inactive

Substance: HKLLGVTYYAV
- amyloid nucleation score: inactive

Substance: HKPCRCKTMLWDLAIVGSLE
- amyloid nucleation score: inactive

Substance: HKSVLFNTRSSCRTSVLIVR
- amyloid nucleation score: inactive

Substance: HLACLRV
- amyloid nucleation score: inactive

Substance: HLAHLSRSLSVKSSSVMKGH
- amyloid nucleation score: inactive

Substance: HLFGDFDKWVDKLWRYNRVD
- amyloid nucleation score: 0.985 ± 0.21

Substance: HLFLKHMLLTYCKPCGW
- amyloid nucleation score: inactive

Substance: HLNLTHNWNVYGKDLNGQFF
- amyloid nucleation score: 2.13 ± 0.072

Substance: HLRDMQRSQNLVG
- amyloid nucleation score: inactive

Substance: HLSSNVLNYVLNFHWFCNFG
- amyloid nucleation score: 0.836 ± 0.16

Substance: HLVADWQCHSDGFKSWLGNW
- amyloid nucleation score: inactive

Substance: HLVMGWLTKPSSIFGLEDKR
- amyloid nucleation score: 1.13 ± 0.11

Substance: HMCRTSCDRFGAIPNFMHWS
- amyloid nucleation score: inactive

Substance: HMTGARRN
- amyloid nucleation score: inactive

Substance: HNKDDK
- amyloid nucleation score: inactive

Substance: HNLMYDRYP
- amyloid nucleation score: inactive

Substance: HPCFLW
- amyloid nucleation score: inactive

Substance: HPLAAGHGVYFSSCIFK
- amyloid nucleation score: 1.7 ± 0.097

Substance: HPMRGDVGSRAVFRMGHFIH
- amyloid nucleation score: inactive

Substance: HPRELYTFKKSWFLGRDS
- amyloid nucleation score: inactive

Substance: HPRTLSRLNINFRANRYGWS
- amyloid nucleation score: -0.859 ± 1.7

Substance: HPSTSTYRQRLPNCY
- amyloid nucleation score: inactive

Substance: HQIFYVFEYEYSKRLLCMWW
- amyloid nucleation score: inactive

Substance: HRELRVTVHQKFNLRMRVSD
- amyloid nucleation score: inactive

Substance: HRKMHDT
- amyloid nucleation score: inactive

Substance: HRLVFCQLTR
- amyloid nucleation score: inactive

Substance: HRMRLSCCTAFDTLVMIPIS
- amyloid nucleation score: 0.482 ± 0.17

Substance: HRVDND
- amyloid nucleation score: inactive

Substance: HRVRYVGPENSQNLCIRDYY
- amyloid nucleation score: inactive

Substance: HSFFVVQAS
- amyloid nucleation score: inactive

Substance: HSLWRLGYYM
- amyloid nucleation score: 0.912 ± 0.15

Substance: HSNSRD
- amyloid nucleation score: -0.231 ± 0.69

Substance: HSQKTTKALRNPSNIQ
- amyloid nucleation score: inactive

Substance: HSRTMVLMCIAMIRVLGYGF
- amyloid nucleation score: inactive

Substance: HSSNWCSVVITLCCTLRKDY
- amyloid nucleation score: 0.748 ± 0.19

Substance: HSTGFPCLLVKITGLRHRLG
- amyloid nucleation score: inactive

Substance: HSVLGMCFSPKGVDVTTLVN
- amyloid nucleation score: inactive

Substance: HSWFFGFIFWLLNDHSIHYG
- amyloid nucleation score: inactive

Substance: HSYHPMPWTVNLGCHFGGYC
- amyloid nucleation score: 2.38 ± 0.068

Substance: HTDIMIWFRSCYYFLSFFMY
- amyloid nucleation score: inactive

Substance: HTDWICYRRWYCIASRAMYQ
- amyloid nucleation score: inactive

Substance: HTGNLYHLSWCV
- amyloid nucleation score: inactive

Substance: HTILSTTTYMKMSQYSLW
- amyloid nucleation score: inactive

Substance: HTVKEGSSNNVVRVRIARRF
- amyloid nucleation score: inactive
